As usually defined, the Kd is the equilibrium constant for the complex coming apart. A low value points to tighter binding.

The data set has as its target T1, Snu13 (Saccharomyces cerevisiae) (UniProt P39990).
T1 sequence: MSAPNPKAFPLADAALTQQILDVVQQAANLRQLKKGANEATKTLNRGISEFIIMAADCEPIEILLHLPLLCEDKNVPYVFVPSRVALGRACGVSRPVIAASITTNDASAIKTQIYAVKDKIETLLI
Put plainly: EMSA. The following applies: EMSA: annealed in 10 mM Tris-HCl, 100 mM NaCl, 1 mM EDTA, pH 7.5; 4 C, 10% native PAGE; 10 pmol Cy5-RNA (~2 uM) or 0.5 nmol unlabeled RNA. RNP: 20 mM Na …. In general terms: Mobility shift assays separate free from complexed probe on a gel.

As to snR41-kl1, the dissociation constant Kd was more than 10 µM.

Source of the values: paper PMC8413462.
